Results published in the supplement of paper PMC5998384.

Columns and labels:
HeLa Kyoto [1] = experiment: solubility in G1/S (NP-40 vs SDS abundance) (log2 ratio); higher = more soluble; conditions: cell cycle stage: G1/S
HeLa Kyoto [2] = experiment: solubility change mitosis vs G1/S (difference of NP-40 vs SDS log2 ratios) (log2 ratio difference); higher = more soluble in mitosis
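For solubility change mitosis vs G1/S (difference of NP-40 vs SDS log2 ratios) in this document: synchronized HeLa Kyoto cells (double thymidine block for G1/S, nocodazole release for mitosis), protein amounts in NP-40 versus SDS lysates quantified by mass spectrometry, three biological replicates.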
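For solubility in G1/S (NP-40 vs SDS abundance) in this document: HeLa Kyoto cells arrested at G1/S by double thymidine block, proteins quantified by TMT10plex mass spectrometry in mild NP-40 versus SDS extracts, three biological replicates.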

Sequence | solubility in G1/S (log2) (HeLa Kyoto [1]) | solubility change mitosis (log2) (HeLa Kyoto [2])
MAVTKELLQMDLYALLGIEEKAADKEVKKAYRQKALSCHPDKNPDNPRAAELFHQLSQALEVLTDAAARAAYDKVRKAKKQAAERTQKLDEKRKKVKLDLEARERQAQAQESEEEEESRSTRTLEQEIERLREEGSRQLEEQQRLIREQIRQERDQRLRGKAENTEGQGTPKLKLKWKCKKEDESKGGYSKDVLLRLLQKYGEVLNLVLSSKKPGTAVVEFATVKAAELAVQNEVGLVDNPLKISWLEGQPQDAVGRSHSGLSKGSVLSERDYESLVMMRMRQAAERQQLIARMQQEDQEGPPT [DNAJC17] | 0.702 | 0.205
MASDGARKQFWKRSNSKLPGSIQHVYGAQHPPFDPLLHGTLLRSTAKMPTTPVKAKRVSTFQEFESNTSDAWDAGEDDDELLAMAAESLNSEVVMETANRVLRNHSQRQGRPTLQEGPGLQQKPRPEAEPPSPPSGDLRLVKSVSESHTSCPAESASDAAPLQRSQSLPHSATVTLGGTSDPSTLSSSALSEREASRLDKFKQLLAGPNTDLEELRRLSWSGIPKPVRPMTWKLLSGYLPANVDRRPATLQRKQKEYFAFIEHYYDSRNDEVHQDTYRQIHIDIPRMSPEALILQPKVTEIFERILFIWAIRHPASGYVQGINDLVTPFFVVFICEYIEAEEVDTVDVSGVPAEVLCNIEADTYWCMSKLLDGIQDNYTFAQPGIQMKVKMLEELVSRIDEQVHRHLDQHEVRYLQFAFRWMNNLLMREVPLRCTIRLWDTYQSEPDGFSHFHLYVCAAFLVRWRKEILEEKDFQELLLFLQNLPTAHWDDEDISLLLAEAYRLKFAFADAPNHYKK [TBC1D22A] | 0.31 | -0.253
MDTKHFLPLDFSTQVNSSLTSPTGRGSMAAPSLHPSLGPGIGSPGQLHSPISTLSSPINGMGPPFSVISSPMGPHSMSVPTTPTLGFSTGSPQLSSPMNPVSSSEDIKPPLGLNGVLKVPAHPSGNMASFTKHICAICGDRSSGKHYGVYSCEGCKGFFKRTVRKDLTYTCRDNKDCLIDKRQRNRCQYCRYQKCLAMGMKREAVQEERQRGKDRNENEVESTSSANEDMPVERILEAELAVEPKTETYVEANMGLNPSSPNDPVTNICQAADKQLFTLVEWAKRIPHFSELPLDDQVILLRAGWNELLIASFSHRSIAVKDGILLATGLHVHRNSAHSAGVGAIFDRVLTELVSKMRDMQMDKTELGCLRAIVLFNPDSKGLSNPAEVEALREKVYASLEAYCKHKYPEQPGRFAKLLLRLPALRSIGLKCLEHLFFFKLIGDTPIDTFLMEMLEAPHQMT [RXRA] | 0.173 | -0.151
MKKSYSGGTRTSSGRLRRLGDSSGPALKRSFEVEEVETPNSTPPRRVQTPLLRATVASSTQKFQDLGVKNSEPSARHVDSLSQRSPKASLRRVELSGPKAAEPVSRRTELSIDISSKQVENAGAIGPSRFGLKRAEVLGHKTPEPAPRRTEITIVKPQESAHRRMEPPASKVPEVPTAPATDAAPKRVEIQMPKPAEAPTAPSPAQTLENSEPAPVSQLQSRLEPKPQPPVAEATPRSQEATEAAPSCVGDMADTPRDAGLKQAPASRNEKAPVDFGYVGIDSILEQMRRKAMKQGFEFNIMVVGQSGLGKSTLINTLFKSKISRKSVQPTSEERIPKTIEIKSITHDIEEKGVRMKLTVIDTPGFGDHINNENCWQPIMKFINDQYEKYLQEEVNINRKKRIPDTRVHCCLYFIPATGHSLRPLDIEFMKRLSKVVNIVPVIAKADTLTLEERVHFKQRITADLLSNGIDVYPQKEFDEDSEDRLVNEKFREMIPFAVVGSDHEYQVNGKRILGRKTKWGTIEVENTTHCEFAYLRDLLIRTHMQNIKDITSSIHFEAYRVKRLNEGSSAMANGMEEKEPEAPEM [SEPT9] | 0.198 | -0.0335
MSANEDQEMELEALRSIYEGDESFRELSPVSFQYRIGENGDPKAFLIEISWTETYPQTPPILSMNAFFNNTISSAVKQSILAKLQEAVEANLGTAMTYTLFEYAKDNKEQFMENHNPINSATSISNIISIETPNTAPSSKKKDKKEQLSKAQKRKLADKTDHKGELPRGWNWVDVVKHLSKTGSKDDE [RWDD4] | 0.234 | 0.301
MRDADADAGGGADGGDGRGGHSCRGGVDTAAAPAGGAPPAHAPGPGRDAASAARGSRMRPHIFTLSVPFPTPLEAEIAHGSLAPDAEPHQRVVGKDLTVSGRILVVRWKAEDCRLLRISVINFLDQLSLVVRTMQRFGPPVSR [LAGE3] | 0.0355 | 0.0284
MGIQGLLQFIKEASEPIHVRKYKGQVVAVDTYCWLHKGAIACAEKLAKGEPTDRYVGFCMKFVNMLLSHGIKPILVFDGCTLPSKKEVERSRRERRQANLLKGKQLLREGKVSEARECFTRSINITHAMAHKVIKAARSQGVDCLVAPYEADAQLAYLNKAGIVQAIITEDSDLLAFGCKKVILKMDQFGNGLEIDQARLGMCRQLGDVFTEEKFRYMCILSGCDYLSSLRGIGLAKACKVLRLANNPDIVKVIKKIGHYLKMNITVPEDYINGFIRANNTFLYQLVFDPIKRKLIPLNAYEDDVDPETLSYAGQYVDDSIALQIALGNKDINTFEQIDDYNPDTAMPAHSRSHSWDDKTCQKSANVSSIWHRNYSPRPESGTVSDAPQLKENPSTVGVERVISTKGLNLPRKSSIVKRPRSAELSEDDLLSQYSLSFTKKTKKNSSEGNKSLSFSEVFVPDLVNGPTNKKSVSTPPRTRNKFATFLQRKNEESGAVVVPGTRSRFFCSSDSTDCVSNKVSIQPLDETAVTDKENNLHESEYGDQEGKRLVDTDVARNSSDDIPNNHIPGDHIPDKATVFTDEESYSFESSKFTRTISPPTLGTLRSCFSWSGGLGDFSRTPSPSPSTALQQFRRKSDSPTSLPENNMSDVSQLKSEESSDDESHPLREEACSSQSQESGEFSLQSSNASKLSQCSSKDSDSEESDCNIKLLDSQSDQTSKLRLSHFSKKDTPLRNKVPGLYKSSSADSLSTTKIKPLGPARASGLSKKPASIQKRKHHNAENKPGLQIKLNELWKNFGFKKDSEKLPPCKKPLSPVRDNIQLTPEAEEDIFNKPECGRVQRAIFQ [EXO1] | -0.442 | 0.136
MASATAPAAAVPTLASPLEQLRHLAEELRLLLPRVRVGEAQETTEEFNREMFWRRLNEAAVTVSREATTLTIVFSQLPLPSPQETQKFCEQVHAAIKAFIAVYYLLPKDQGITLRKLVRGATLDIVDGMAQLMEVLSVTPTQSPENNDLISYNSVWVACQQMPQIPRDNKAAALLMLTKNVDFVKDAHEEMEQAVEECDPYSGLLNDTEENNSDNHNHEDDVLGFPSNQDLYWSEDDQELIIPCLALVRASKACLKKIRMLVAENGKKDQVAQLDDIVDISDEISPSVDDLALSIYPPMCHLTVRINSAKLVSVLKKALEITKASHVTPQPEDSWIPLLINAIDHCMNRIKELTQSELEL [CCNDBP1] | 0.509 | -0.176
MEEGNNNEEVIHLNNFHCHRGQEWINLRDGPITISDSSDEERIPMLVTPAPQQHEEEDLDDDVILTEDDSEDDYGEFLDLGPPGISEFTKPSGQTEREPKPGPSHNQAANDIVNPRSEQKVIILEEGSLLYTESDPLETQNQSSEDSETELLSNLGESAALADDQAIEEDCWLDHPYFQSLNQQPREITNQVVPQERQPEAELGRLLFQHEFPGPAFPRPEPQQGGISGPSSPQPAHPLGEFEDQQLASDDEEPGPAFPMQESQEPNLENIWGQEAAEVDQELVELLVKETEARFPDVANGFIEEIIHFKNYYDLNVLCNFLLENPDYPKREDRIIINPSSSLLASQDETKLPKIDFFDYSKLTPLDQRCFIQAADLLMADFKVLSSQDIKWALHELKGHYAITRKALSDAIKKWQELSPETSGKRKKRKQMNQYSYIDFKFEQGDIKIEKRMFFLENKRRHCRSYDRRALLPAVQQEQEFYEQKIKEMAEHEDFLLALQMNEEQYQKDGQLIECRCCYGEFPFEELTQCADAHLFCKECLIRYAQEAVFGSGKLELSCMEGSCTCSFPTSELEKVLPQTILYKYYERKAEEEVAAAYADELVRCPSCSFPALLDSDVKRFSCPNPHCRKETCRKCQGLWKEHNGLTCEELAEKDDIKYRTSIEEKMTAARIRKCHKCGTGLIKSEGCNRMSCRCGAQMCYLCRVSINGYDHFCQHPRSPGAPCQECSRCSLWTDPTEDDEKLIEEIQKEAEEEQKRKNGENTFKRIGPPLEKPVEKVQRVEALPRPVPQNLPQPQMPPYAFAHPPFPLPPVRPVFNNFPLNMGPIPAPYVPPLPNVRVNYDFGPIHMPLEHNLPMHFGPQPRHRF [RNF216] | -0.195 | -0.122
